The data set concerns the molecule itself. Briefly: negative-stain TEM + dynamic light scattering.

Consider one protein from paper PMC5330652 (Journal of the American Chemical Society, 2017).

B1: cowpea chlorotic mottle virus (CCMV) capsid protein (natural protein)
chain: MSTVGTGKLTRAQRRAAARKNKRNTRVVQPVIVEPIASGQGKAIKAWTGYSVSKWTASCAAAEAKVTSAITISLPNELSSERNKQLKVGRVLLWLGLLPSVSGTVKSCVTETQTTAAASFQVALAVADNSKDVVAAMYPEAFKGITLEQLTADLTIYLYSSAALTEGDVIVHLEVEHVRPTFDDSFTPVY
On to B1, for which the “stoichiometry N” value was found to be 60.

As usually defined, the stoichiometry N is the number of molecules, sites or subunits per partner or assembly.
